Experimental data taken from article PMC2909587.

Molecular target: taxol-stabilised pig-brain MTs (pig) (UniProt P02550)
Test: co-sedimentation

- Kd: 700 nM
- stoichiometry N: 6 CENP-Q:MT
Substance: CENP-Q (from UniProt Q7L2Z9 1-268) (natural protein)
